How the values were obtained:
[1] = target: T1, HA of H5N1 virus strain HN1 (avian influenza virus H5N1); assay: cell-based or functional assay
[2] = target: T2, HA of H5N1 virus strain MIX2 (avian influenza virus H5N1); assay: cell-based or functional assay
[3] = target: T3, HA of H5N1 virus strain MIX3 (avian influenza virus H5N1); assay: cell-based or functional assay
[4] = target: T4, HA of H5N1 virus strain MIX1 (avian influenza virus H5N1); assay: cell-based or functional assay
[5] = target: T5, HA of H5N1 virus strain GD3 (avian influenza virus H5N1); assay: cell-based or functional assay
[6] = target: T6, HA of H5N1 virus strain IDN4 (avian influenza virus H5N1); assay: cell-based or functional assay
[7] = target: T7, HA of H5N1 virus strain VTM2 (avian influenza virus H5N1); assay: cell-based or functional assay
[8] = target: T8, HA of H5N1 virus strain VTM4 (avian influenza virus H5N1); assay: cell-based or functional assay
[9] = target: T9, HA of H5N1 virus strain IDN1.1 (avian influenza virus H5N1); assay: cell-based or functional assay
[10] = target: T10, HA of H5N1 virus strain HN2 (avian influenza virus H5N1); assay: cell-based or functional assay
[11] = target: T11, HA of H5N1 virus strain GD2 (avian influenza virus H5N1); assay: cell-based or functional assay
[12] = target: T12, HA of H5N1 virus strain MB2 (avian influenza virus H5N1); assay: cell-based or functional assay
[13] = target: T13, HA of H5N1 virus strain VTM1.1 (avian influenza virus H5N1); assay: cell-based or functional assay
[14] = target: T14, HA of H5N1 virus strain VTM3 (avian influenza virus H5N1); assay: cell-based or functional assay
[15] = target: T15, HA of H5N1 virus strain MB1 (avian influenza virus H5N1); assay: cell-based or functional assay
[16] = target: T16, HA of H5N1 virus strain IDN2 (avian influenza virus H5N1); assay: cell-based or functional assay
[17] = target: T17, HA of H5N1 virus strain GD1 (avian influenza virus H5N1); assay: cell-based or functional assay
[18] = target: T18, HA of H5N1 virus strain VNM2.1 (avian influenza virus H5N1); assay: cell-based or functional assay
[19] = target: T19, HA of H5N1 virus strain YN1 (avian influenza virus H5N1); assay: cell-based or functional assay
[20] = target: T20, HA of H5N1 virus strain IDN5 (avian influenza virus H5N1); assay: cell-based or functional assay
[21] = target: T21, HA of H5N1 virus strain IDN3 (avian influenza virus H5N1); assay: cell-based or functional assay
fusion protein HBc-D125 = target: T22, fusion protein HBc-D125 (HBV); assay: ELISA, fusion protein coated at 10 ug/ml
T22 chain: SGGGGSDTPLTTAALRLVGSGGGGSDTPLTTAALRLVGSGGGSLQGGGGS

fusion protein HBc-D123 = target: T23, fusion protein HBc-D123 (HBV); assay: ELISA, fusion protein coated at 10 ug/ml
T23 chain: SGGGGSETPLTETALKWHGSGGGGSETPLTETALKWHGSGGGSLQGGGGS

fusion protein HBc-122 = target: T24, fusion protein HBc-122 (HBV); assay: indirect ELISA, fusion protein coated at 10 ug/ml, 12 mAb tested
T24 chain: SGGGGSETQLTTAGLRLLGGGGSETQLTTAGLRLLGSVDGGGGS

fusion protein HBc-124 = target: T25, fusion protein HBc-124 (HBV); assay: as above
T25 chain: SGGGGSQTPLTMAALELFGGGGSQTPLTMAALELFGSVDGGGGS

fusion protein HBc-128 = target: T26, fusion protein HBc-128 (HBV); assay: as above
T26 chain: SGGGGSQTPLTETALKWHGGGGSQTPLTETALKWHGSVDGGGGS

[22] = target: T1, HA of H5N1 virus strain HN1; assay: cell-based or functional assay; remark: listed apart in the source
[23] = target: T2, HA of H5N1 virus strain MIX2; assay: cell-based or functional assay; remark: listed apart in the source
[24] = target: T3, HA of H5N1 virus strain MIX3; assay: cell-based or functional assay; remark: listed apart in the source
[25] = target: T4, HA of H5N1 virus strain MIX1; assay: cell-based or functional assay; remark: listed apart in the source
[26] = target: T5, HA of H5N1 virus strain GD3; assay: cell-based or functional assay; remark: listed apart in the source
[27] = target: T6, HA of H5N1 virus strain IDN4; assay: cell-based or functional assay; remark: listed apart in the source
[28] = target: T7, HA of H5N1 virus strain VTM2; assay: cell-based or functional assay; remark: listed apart in the source
[29] = target: T8, HA of H5N1 virus strain VTM4; assay: cell-based or functional assay; remark: listed apart in the source
[30] = target: T9, HA of H5N1 virus strain IDN1.1; assay: cell-based or functional assay; remark: listed apart in the source
[31] = target: T10, HA of H5N1 virus strain HN2; assay: cell-based or functional assay; remark: listed apart in the source
[32] = target: T11, HA of H5N1 virus strain GD2; assay: cell-based or functional assay; remark: listed apart in the source
[33] = target: T12, HA of H5N1 virus strain MB2; assay: cell-based or functional assay; remark: listed apart in the source
[34] = target: T13, HA of H5N1 virus strain VTM1.1; assay: cell-based or functional assay; remark: listed apart in the source
[35] = target: T14, HA of H5N1 virus strain VTM3; assay: cell-based or functional assay; remark: listed apart in the source
[36] = target: T15, HA of H5N1 virus strain MB1; assay: cell-based or functional assay; remark: listed apart in the source
[37] = target: T16, HA of H5N1 virus strain IDN2; assay: cell-based or functional assay; remark: listed apart in the source
[38] = target: T17, HA of H5N1 virus strain GD1; assay: cell-based or functional assay; remark: listed apart in the source
[39] = target: T18, HA of H5N1 virus strain VNM2.1; assay: cell-based or functional assay; remark: listed apart in the source
[40] = target: T19, HA of H5N1 virus strain YN1; assay: cell-based or functional assay; remark: listed apart in the source
[41] = target: T20, HA of H5N1 virus strain IDN5; assay: cell-based or functional assay; remark: listed apart in the source
[42] = target: T21, HA of H5N1 virus strain IDN3; assay: cell-based or functional assay; remark: listed apart in the source

B1: monoclonal antibody 8H5 (antibody, V domains shown)
VH: QVQLQQSGAELMKPGASVKISCKATGYTFSNYWIEWIKQRPGHGLEWIGEILPGSDRTNYNGKFKGKATFTADTSSNTAHMQLSSLTSEDSAVYYCANRYDGYYFGLDYWGQGTSVAVSS
VL: EIVLTQSPAIMSASLGEKVTMSCRASSSVNFVYWYQQRSDASPKLLIYYSSNLAPGVPPRFSGSGSGNSYSLTISGLEGEDAATYYCQHFTSSPYTFGGGTNLEIKR
B1 was tested, and the Neutralization titer [1] was 12800 titer, the Neutralization titer [2] was 6400 titer and the Neutralization titer [3] was 12800 titer. It also gave a Neutralization titer [4] of 12800 titer, a Neutralization titer [5] of 12800 titer and a Neutralization titer [6] of 12800 titer. For the same binder, the Neutralization titer [7] was 800 titer, the Neutralization titer [8] was 1600 titer and the Neutralization titer [9] was 12800 titer. For the same binder, the Neutralization titer [10] was 6400 titer, the Neutralization titer [11] was 12800 titer and the Neutralization titer [12] was 12800 titer. The Neutralization titer [13] was 1600 titer, the Neutralization titer [14] was 12800 titer and the Neutralization titer [15] was 6400 titer. For the same binder, the Neutralization titer [16] was 6400 titer, the Neutralization titer [17] was 12800 titer and the Neutralization titer [18] was 3200 titer. The Neutralization titer [19] was 6400 titer, the Neutralization titer [20] was 6400 titer and the Neutralization titer [21] was 12800 titer. B1: binds (fusion protein HBc-D125); binds (fusion protein HBc-D123); binds (fusion protein HBc-122). For the same binder, the binding result (fusion protein HBc-124) was “binds”, the binding result (fusion protein HBc-128) was “binds” and the HI titer [22] was 12800 titer. For the same binder, the HI titer [23] was 6400 titer, the HI titer [24] was 12800 titer and the HI titer [25] was 12800 titer. The HI titer [26] was 12800 titer, the HI titer [27] was 12800 titer and the HI titer [28] was 6400 titer. For the same binder, the HI titer [29] was 1600 titer, the HI titer [30] was 12800 titer and the HI titer [31] was 3200 titer. It also gave an HI titer [32] of 12800 titer, an HI titer [33] of 6400 titer and an HI titer [34] of 12800 titer. For the same binder, the HI titer [35] was 6400 titer, the HI titer [36] was 3200 titer and the HI titer [37] was 1600 titer. For the same binder, the HI titer [38] was 12800 titer, the HI titer [39] was 6400 titer and the HI titer [40] was 3200 titer. For the same binder, the HI titer [41] was 6400 titer and the HI titer [42] was 3200 titer.

B2: monoclonal antibody 2F2 (antibody, V domains shown)
VH: QVQLKESGPGLVAPSQRLSITCTVSGFSLTGYGVHWIRQSPGKGLEWLGMIWAEGRTDYNSVLKSRLSINKDNSRSQVFLEMNSLQTDDTARYYCAREVITTEAWYFDVWGQGTSVTES
VL: DIVMTQSPATLSVTPGDRVSLSCRASQSISDYLYWYQQKSHESPRLLIKYASQSISGIPSRFSGSGSGSDFTLTINSVEPEDVGMYYCQNGHTFPLTFGAGTKLEIKR
For B2, the Neutralization titer [1] was 12800 titer, the Neutralization titer [2] was 100 titer and the Neutralization titer [3] was 12800 titer. The Neutralization titer [4] was 100 titer, the Neutralization titer [5] was 12800 titer and the Neutralization titer [6] was 12800 titer. For the same binder, the Neutralization titer [7] was 12800 titer, the Neutralization titer [8] was 12800 titer and the Neutralization titer [9] was 12800 titer. It also gave a Neutralization titer [10] of 12800 titer, a Neutralization titer [11] of 12800 titer and a Neutralization titer [12] of 12800 titer. The Neutralization titer [13] was 1600 titer, the Neutralization titer [14] was 12800 titer and the Neutralization titer [16] was 12800 titer. The Neutralization titer [17] was 12800 titer, the Neutralization titer [18] was 12800 titer and the Neutralization titer [20] was 12800 titer. It also gave an HI titer [22] of 6400 titer, an HI titer [23] of less than 100 titer and an HI titer [24] of 12800 titer. It also gave an HI titer [25] of less than 100 titer, an HI titer [26] of 12800 titer and an HI titer [27] of 12800 titer. For the same binder, the HI titer [28] was 3200 titer, the HI titer [29] was 6400 titer and the HI titer [30] was 12800 titer. It also gave an HI titer [31] of 1600 titer, an HI titer [32] of 12800 titer and an HI titer [33] of 6400 titer. The HI titer [34] was 12800 titer, the HI titer [35] was 12800 titer and the HI titer [36] was less than 100 titer. The HI titer [37] was 800 titer, the HI titer [38] was 12800 titer and the HI titer [39] was 200 titer. It also gave an HI titer [40] of 800 titer, an HI titer [41] of 12800 titer and an HI titer [42] of 1600 titer.

— patent US20090068637A1 (published 2009)
